Assay: yeast display, Sf9 membrane polyspecificity reagent, FACS + sequencing; frameworks hold sequencing errors
Outline: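 Sorting gates, low and high (top ~1%), were placed on anti-HA fluorescence to track expression and on streptavidin fluorescence to track reagent binding. A clone's polyreactivity label is taken from the gate it came out of. The reagent was 10% biotinylated, detergent-solubilized Sf9 membrane, applied for 1 hour at 4 °C to galactose-induced yeast display cells.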

Sequence	polyreactivity (PSR sort gate)
QVQLVESGGGLVQAGGSLRLSCAASGRTFQLNAMGCYRQAPGKERELVAAISTRGGSTYYADSVKGRFTISRDNAKNTVYLQMNSLKPEDTAVYYCAKDPSFTRGYKDGGGYDYWGQGTQVTVSS	high polyreactivity
QVQLVESGGGLVQAGGSLRLRCAASGRIFYFNAMGWYRQAPGKEREFVASINSIGDSTYYADSVKGRFTISRDTAKNTVYLQMNSLKPEDTAVYYCNADHGVINYRLDYWGQGTQVTVSS	low polyreactivity
QVQLVESGGGLVQAGGSLRLSCAASGFIFRNYAMGWYRQAPGKERELVAAISRGGRTNYADSVKGLFTISRDNAKNTVYLQMNSLKPEDTAVYYCNAVTVGLYDYWGQVTQVTVSS	high polyreactivity
QVQLVESGGRLVQAGGSLRLSCAASGFIFRSYAMGWYRQAPGKERELVAAISSRGGSTSYADSVKGRFTISRDNAKNTVYLQLNSLKPEDTAVYYCNAYQYPGYGNNYWGQGSQVTVSS	high polyreactivity
QVQLVESGGGLVQAGGSLRLSCAASGRTFYANTMGWYRPAPGKERELVASITSRGTSTYYADSVKGRFTISRDNAKNTVYLEMNSLKPEDTAVYYCAKAFIAPQYAWGGDYWGQGTQVTVSS	high polyreactivity
HVQLVESAGGLVQAGGSLRVSCAASGRTFEDNAMGWSRPAPGKERELVAAISSAGSTNYADSVKGRFTISRDNAKNTVYLQMTSLKPEDTAVYYCNATVYWPYDWRTSDYWGHGTQVTVSS	low polyreactivity
QVQLVESGGGLVQAGGSLRLSCAASGITFYGNAMGWYRQAPGKERELVAAISSSGGTTYYADSVKGRFTISRDNAKNTVYLQMNSLIPEDTAVYYCNALHPVVYYGTYFNLRRYDYWGQGTQVTVSS	low polyreactivity
QVQLVESGGGLVQAGGRLRISCAASGAIFGEYPMGWYSQAPGKERELVADITTGGNTNYADSVKGRFTITRDNAKNTVYVHMNSLKPEDTAVYYCIAYGNTYGYWWFGYWGQGTQVNVSS	low polyreactivity
QVQLVESGGCLVQAGGSLRLICAASGSTFRRYAMGWYRQAPGKERELVATISKSGGSTYYADSVKGRFTISRDNAKNTVYLQMNSLKPEDTAVYYCAARSFFYRVSDRRAYIDTNGYWGQGTQVTVSS	high polyreactivity
QVQLVESGGGLVQAGGSLRLSCAASGIFRGYAMGWYRQAPGKEREFVAAISRTGGGTYYADSVKGRFTISRDNAKNTVYLQMNSLKPEDTAVYYCAAVRKYDGQKFGYWGQGTQVTVSS	low polyreactivity
QVQLVESGGGLVQAGGSLRLSCAASGSTGVNTMGWYRQAPGKERQLVAAIRATGGSTYYADSVKGRFTISRENAKNTVYFQMNSLKPEDTAVYYCNAYRRSYRWYGDLGEYWGQGTQVTVSS	high polyreactivity
QVQLVESGGGLVQAGGSLRLSCAASGRIFPTNAMGWYRQAPGKERELVASITRSGSTYYADSVTGRFTISRDNAKNTVYLQMNSLKPEDTAVYYCAAYAYIFLDWGGYPYYLYEYDYWGQGTQVTVSS	low polyreactivity
QVQLVESGGGLVQAGGSLRLSCAASGRTLGGYAMGWYRQAPRKERELVAVITWNGGSTYADSVKGRFTISRDNAKNTVYLQMNSLKPVDTAVYYCAARQAYYAAFRTRYGYWGQGTQVTVSS	high polyreactivity
QVQLEESGGGLVQAGGSLRFSCAASGSTFLHYAMGWYRPAPGQERALVAAITWSGGSTYYADSVKGRFTISRDNAKNTVSLQMNSLKPEDTAVYYCAADLTYLYDYHYDYWGQGTQVTVSS	low polyreactivity
QVQLVESGGGLVQAGGSLRLSCAASGSTFTPYAMGWYRQAPGKERELVAAISWSDDSTYYADSVKGRFTISRDIAKNTVYLQMNSLKPEDTAVYYCAASAYVDYGVYTYIMDYWGQGTQVTVSS	high polyreactivity
QVQLVESGVGLVQAGGSLRLSCAASGRTFSRNAMGWYRQAPGKERELVAAISRSGGSTYYADSVKGRFTISRDNAKNTVYLQMNSLKPEDTAVYYCNADVYSTYYNYNYWGQGTQVTVSS	high polyreactivity
QVQLVESGGGLVQAGGSLRLSCAASGFIFDKYVMGWYRQAPGKERELVAAISSGGSTYYADSVKGRFTISRDNAKNTVYLQMNSLKPEDTAVYYCNAGGFWPWVYGYDSWGQGTQVTVSS	high polyreactivity
QVQLVESGGGLVQAGGSLRLSCAASGSTFRWYAMGWYRQAPGKERELVAAISARGTSTYYADSVKGRFTISRDNAKNTVYLQMNSLKPEDTAVYYCAATRTYQLYRWAPRYYYWGQGTQVTVSS	high polyreactivity
QVQLVESGGGLVQAGGSLRLSCAASGSTFAWYAMGWYRQAPGKERELVAAISSTVGSTYYADSVKGRFTISRDNAKNTVYLQLKSLKPEDTAVYYCARYYYRYYIRQLALGASTYDYWGQGTQVTVSS	high polyreactivity
QVQLVESGGGLDQAGGSLRLSCAASGSTFPKYGMGWYRQSPGKDREFVARINWNGGGTYYADSVKGRFTISRDNAKNTVYLQMNSLKPEDTAVYYCAADYEYYYFWDYYWGQGTQVTVSS	low polyreactivity
QFQLVESGGGLGQAGGSNRLSCAASGRIFNIYAMGCYRQSPGKERELVADITSGGTKYADSVKGRFTISRDNAKNTVYLQMNSLKPEDTAVDYCAAEYLYYGGVDYWGQGTQVTVSS	high polyreactivity
QVQLVESGGGLVQAGGSLRLSCAASGRTFSAYAMGWYRQAPGKERELVARITSVDSTNYADSVKGRFTISRDNAKNTVYLQMNSLKPEDTAVYYCNATFGYPFVDYDDYWGQGTQVTGSS	low polyreactivity
QVQLVESGGGLVQAGGSLRLSCAASGRTFKFYAMGWYRQAPGKERELVAGIGSGGRTYYADSVKGRFTISRYNAKNTVYLHMNSLKPEDTAVYYCAARQYGPRYTYYYWGQGTQVTVSS	high polyreactivity
QVQLVESGAGLVQAGGSLRLSCAASGRTFAFYAMGWYRQAPGKERELVAAITLGASRTYYADSVKGRFTISRDNAKNTVYLQMNSRKPEDTAVYYCNAVGRRNVDSSLNDYWGQGTLVTVSS	low polyreactivity
QVQLVASGGGLVLAGGILRLSCAASGSTFVSNALGWYRLAPGKERALVAVITFRGGTTYYADSVKGRFTISRDNAKNTVYLQMNSLKPEDTAGYYCAARSYQYSYSFYWGQGTQVTVSS	high polyreactivity
QVQLVESGGGLVQAGGSLRLSCAASGRTFEPNAMGWYRQAPGKEREFVAAISWDGGDTYYADSVKGRFTISRDNAKNTVYLQMNSLKPEDTAVYYCAKSTLYSVEYDYWGQGTQVTVSS	low polyreactivity
QVQLVESGGGLVQAGGSLRLSCAASGLIFYINAMGWYRQAPGKERELVAAISSGGSTNYADSVKGRFTISRDNAKNTVYLQMNSLKPEDTAVYYCARDAYLPRIADGDGRYELVDYWGQGTQVTVSS	low polyreactivity
QVQLVESGGGLVQAGGSLRLSCAASGRIFSRNAMGWYRQAPGKERELVAAISRTGGSTYYADSVKGRFTISRDNAKNTVYLQMNSLKPEDTAVYYCADAYYRKSSYGQIVEYDYWGQGTQVTVSS	high polyreactivity
QVQLVESGGGLVQAGGSLRLSCAASGSIFSGNEMGWYRQAPGKDSELVATISWSGGSTNYADSVKGGFTISRDNAKNTVYLQMNSLKPEDTSVYYCAAVPGWVRQADGWVLSLLDYWGQGTQVTVSS	low polyreactivity
QVQLVESGGGIVQAGGSLRLSSAASGRIFRYYAMGWYRQAPGKERQLVAAISGSGGITYYADSVKGRFTISRDNAKNTVYLQLNRLKPEDTAVYYCAARYGIRPSVSGGYWGQGTQVTVSS	high polyreactivity

— the nanobody polyreactivity screen of Harvey et al. (2022)
